For assay [1], the target named is T1, human Tie2 ECD5 (extracellular domain without the FN3 domains; Ig1, Ig2, EGF and Ig3 domains) (human, UniProt Q02763 23-442).
T1 construct: whole entry named; also called huECD5; hECD5; not shown: C-terminal carrier of the coated construct (hIgG1 Fc or Flag tag)
Briefly: ELISA: human Tie2 ECD5 construct immobilized, serial dilutions of IgG, anti-huFc-HRP. The source says:
(§1) Plates were washed and detected with anti-huFC-conjugated HRP secondary antibody using the methods above.

The target in assay [2] is T2, omalizumab.
T2 construct: Used as irrelevant coated protein; also called irrelevant Fc-containing protein; not shown: the constant regions
As to the kind of experiment: phage ELISA. A general note: ELISA stands for enzyme-linked immunosorbent assay.

For assay [3], the target named is T3, mouse Tie2 ECD5 (mouse, UniProt Q02858 23-442, limits assumed).
T3 construct: domain: ECD5 (Ig1, Ig2, EGF and Ig3 domains); also called mECD5
T3 sequence (Q02858 23-442 limits assumed): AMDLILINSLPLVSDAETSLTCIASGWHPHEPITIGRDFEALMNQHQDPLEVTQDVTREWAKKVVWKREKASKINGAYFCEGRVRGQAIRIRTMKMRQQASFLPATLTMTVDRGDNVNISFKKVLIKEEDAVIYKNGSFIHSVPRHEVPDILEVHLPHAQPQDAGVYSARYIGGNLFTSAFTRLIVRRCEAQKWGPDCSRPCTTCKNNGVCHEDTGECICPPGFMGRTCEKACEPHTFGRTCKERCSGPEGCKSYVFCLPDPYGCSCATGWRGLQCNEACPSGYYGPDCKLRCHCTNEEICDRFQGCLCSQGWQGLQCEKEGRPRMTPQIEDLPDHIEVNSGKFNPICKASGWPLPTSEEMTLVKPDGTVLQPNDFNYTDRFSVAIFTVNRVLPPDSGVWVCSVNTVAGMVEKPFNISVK
As to the kind of experiment: ELISA: mouse Tie2 ECD5 construct immobilized, serial dilutions of IgG, anti-huFc-HRP.
Excerpt: as §1

The target in assay [4] is T4, human Tie1 (human, UniProt P35590 22-759).
T4 construct: extracellular domain
T4 sequence (looked up): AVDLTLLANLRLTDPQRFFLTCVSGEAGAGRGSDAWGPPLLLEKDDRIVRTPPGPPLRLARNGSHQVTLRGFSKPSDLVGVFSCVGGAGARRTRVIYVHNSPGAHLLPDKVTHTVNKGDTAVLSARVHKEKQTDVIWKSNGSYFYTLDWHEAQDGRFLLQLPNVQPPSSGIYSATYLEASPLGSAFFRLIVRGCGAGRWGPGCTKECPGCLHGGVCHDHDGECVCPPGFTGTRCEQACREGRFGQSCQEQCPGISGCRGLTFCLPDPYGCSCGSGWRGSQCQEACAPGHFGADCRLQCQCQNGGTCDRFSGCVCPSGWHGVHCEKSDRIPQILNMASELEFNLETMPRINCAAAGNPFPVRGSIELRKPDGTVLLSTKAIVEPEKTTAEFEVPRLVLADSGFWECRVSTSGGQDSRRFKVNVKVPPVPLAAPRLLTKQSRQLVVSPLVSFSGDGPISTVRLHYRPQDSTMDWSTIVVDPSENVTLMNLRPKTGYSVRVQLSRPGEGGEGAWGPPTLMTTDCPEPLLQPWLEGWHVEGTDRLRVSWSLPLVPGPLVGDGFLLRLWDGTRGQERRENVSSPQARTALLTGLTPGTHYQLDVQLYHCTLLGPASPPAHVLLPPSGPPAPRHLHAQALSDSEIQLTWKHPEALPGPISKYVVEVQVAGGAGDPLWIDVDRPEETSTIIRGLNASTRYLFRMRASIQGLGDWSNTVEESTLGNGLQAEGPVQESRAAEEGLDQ
As to the kind of experiment: ELISA: human Tie1 immobilized, serial dilutions of IgG, anti-huFc-HRP.
Excerpt: as §1
The binding ELISA was also used with immobilized Tie1 protein to assess Tie1 binding.

The target in assay [5] is T5, rat Tie2ECD.flag (rat, UniProt A0ABK0L6J5 19-740).
T5 construct: extracellular domain; also called rTie2.flag; not shown: C-terminal Flag tag
Briefly: Biacore, hIgG captured, 25C. The protocol:
(§2) Monovalent affinities of selected anti-Tie2 hIgGs were determined using a Biacore T200 instrument (GE Life Sciences). Anti-humanFc was covalently immobilized on a Series S CM5 Biacore sensor chip to enable non-covalent capture of anti-Tie2 antibodies and binding of human or rat Tie2ECD.flag was monitored in real time at 25° C. using a multi-cycle kinetics experiment format. Between cycles, the surface was regenerated with 3 M MgCl₂. Monovalent affinities were determined by kinetic analysis, using Biacore Evaluation Software (GE Life Sciences) to fit a 1:1 binding model to the data.

The target in assay [6] is T6, human Tie2ECD.flag (human, UniProt Q02763 23-748).
T6 construct: also called hTie2.flag; not shown: C-terminal Flag tag
T6 sequence (Q02763 23-748 limits assumed): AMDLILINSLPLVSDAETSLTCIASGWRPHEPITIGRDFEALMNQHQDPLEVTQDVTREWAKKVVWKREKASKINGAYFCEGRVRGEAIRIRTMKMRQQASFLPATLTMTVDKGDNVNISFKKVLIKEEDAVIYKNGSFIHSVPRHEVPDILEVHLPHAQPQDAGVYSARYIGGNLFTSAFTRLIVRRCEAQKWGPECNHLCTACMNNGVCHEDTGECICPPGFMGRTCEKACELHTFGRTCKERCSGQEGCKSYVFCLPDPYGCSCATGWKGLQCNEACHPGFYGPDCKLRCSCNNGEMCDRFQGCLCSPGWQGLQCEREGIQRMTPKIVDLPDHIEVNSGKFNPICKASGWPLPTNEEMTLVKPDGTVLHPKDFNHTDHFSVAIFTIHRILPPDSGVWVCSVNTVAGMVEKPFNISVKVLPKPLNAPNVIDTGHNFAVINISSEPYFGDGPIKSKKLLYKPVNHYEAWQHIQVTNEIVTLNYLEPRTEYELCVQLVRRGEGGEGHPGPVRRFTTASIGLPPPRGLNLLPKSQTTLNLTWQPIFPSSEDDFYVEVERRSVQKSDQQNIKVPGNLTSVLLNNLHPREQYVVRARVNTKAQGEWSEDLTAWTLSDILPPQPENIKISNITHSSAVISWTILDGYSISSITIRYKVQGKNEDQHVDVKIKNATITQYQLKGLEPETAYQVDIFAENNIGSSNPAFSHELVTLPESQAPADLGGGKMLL
Briefly: Biacore, hIgG captured, 25C. The protocol: as §2
(In general: SPR reads the build-up and loss of mass on a sensor chip optically.)

For assay [7], the target named is T7, mouse Tie2 full extracellular domain (mouse, UniProt Q02858 23-746).
T7 construct: extracellular domain; also called mFullECD
T7 sequence (Q02858 23-746): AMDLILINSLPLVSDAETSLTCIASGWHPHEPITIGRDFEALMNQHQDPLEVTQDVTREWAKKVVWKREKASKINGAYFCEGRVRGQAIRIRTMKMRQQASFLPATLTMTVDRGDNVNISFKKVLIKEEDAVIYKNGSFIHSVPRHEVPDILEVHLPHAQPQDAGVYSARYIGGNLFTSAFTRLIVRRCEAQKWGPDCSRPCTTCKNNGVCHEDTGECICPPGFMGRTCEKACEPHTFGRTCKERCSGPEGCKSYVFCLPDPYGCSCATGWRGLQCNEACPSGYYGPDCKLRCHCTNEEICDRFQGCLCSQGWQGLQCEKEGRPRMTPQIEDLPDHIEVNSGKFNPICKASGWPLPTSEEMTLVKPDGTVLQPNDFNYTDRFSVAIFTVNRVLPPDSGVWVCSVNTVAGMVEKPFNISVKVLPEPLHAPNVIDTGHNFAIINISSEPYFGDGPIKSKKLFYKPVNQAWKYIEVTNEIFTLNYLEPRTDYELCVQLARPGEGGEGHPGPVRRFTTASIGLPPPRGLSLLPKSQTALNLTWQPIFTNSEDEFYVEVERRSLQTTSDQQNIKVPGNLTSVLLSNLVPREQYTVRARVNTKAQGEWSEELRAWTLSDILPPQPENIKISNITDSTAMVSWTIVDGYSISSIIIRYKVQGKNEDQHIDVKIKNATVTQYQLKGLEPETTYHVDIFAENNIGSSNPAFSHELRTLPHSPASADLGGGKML
As to the kind of experiment: phage ELISA. The protocol:
Clones from the fourth round were screened for Tie2 binding and specificity by ELISA. Screening ELISAs were carried out by coating the wells of a 96-well microtiter plate with Tie2 protein or irrelevant protein at 65 ul per well (1 ug/ml in coating buffer) at 4° C. overnight. In a 96-tube plate, colonies from the fourth round were grown overnight at 37° C. in 400 ul 2YT media with 50 ug/ml carbenicillin and helper phage K07. The plate was spun down at 3000 rpm for 10 min. 30 ul of the culture supernatant was added with 60 ul of ELISA buffer (PBS with 0.5% BSA and 0.05% Tween20) to the Tie2-coated plate and incubated at room temperature for 1 hr. Plates were washed with PBS—0.05% Tween20 and 100 ul/well of horseradish peroxidase (HRP)-conjugated anti-M13 antibody (1/5000 dilution in PBS plus 0.5% BSA and 0.05% Tween20) at room temperature for 30 min (Sidhu et al., supra). The wells were washed with PBS—0.05% Tween20 prior to 100 ul/well of a 1:1 ratio of 3,3′,5,5′-tetramethylbenzidine (TMB) peroxidase substrate and Peroxidase Solution B (H₂O₂) ((Kirkegaard-Perry Laboratories (Gaithersburg, Md.)) being added per well and incubated for 5 min at room temperature. The reaction was stopped by adding 100 ul 1M phosphoric Acid (H₃PO₄) per well and the OD of wells was determined using a standard ELISA plate reader at 450 nm.

As a reminder, the EC50 (read off the curve) is the concentration at which the effect is half-maximal. A word on the Kd: it is a measure of binding affinity in units of concentration. Low values mean tighter binding, high ones weaker binding.

T1 sequence (Q02763 23-442 limits assumed): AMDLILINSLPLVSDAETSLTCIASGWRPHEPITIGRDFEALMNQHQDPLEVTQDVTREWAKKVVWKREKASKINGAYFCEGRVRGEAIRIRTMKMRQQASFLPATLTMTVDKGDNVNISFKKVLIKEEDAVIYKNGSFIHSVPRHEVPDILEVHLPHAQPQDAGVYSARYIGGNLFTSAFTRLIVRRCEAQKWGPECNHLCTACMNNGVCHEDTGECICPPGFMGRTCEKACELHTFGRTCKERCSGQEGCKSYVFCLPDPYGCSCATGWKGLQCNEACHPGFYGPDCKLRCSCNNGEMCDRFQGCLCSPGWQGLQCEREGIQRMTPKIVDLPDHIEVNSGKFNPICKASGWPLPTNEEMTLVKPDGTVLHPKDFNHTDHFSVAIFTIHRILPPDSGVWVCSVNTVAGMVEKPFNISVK

B1: Tie2.12 (antibody, IgG1, V domains shown)
VH: EVQLVESGGGLVQPGGSLRLSCAASGFTFSSYWIHWVRQAPGKGLEWVAAISPNDGSTYYADSVKGRFTISADTSKNTAYLQMNSLRAEDTAVYYCARSRYYGQRLVYYVMDYWGQGTLVTVSS
VL: DIQMTQSPSSLSASVGDRVTITCRASQDVSTAVAWYQQKPGKAPKLLIYSASFLYSGVPSRFSGSGSGTDFTLTISSLQPEDFATYYCQQSYTTPPTFGQGTKVEIKR
notes: hIgG1 in later assays; also called Ab12
As for B1, the “EC50 (read off the curve)” value in assay [1] and in assay [3] was roughly 1 nM in each case. Also, the results for the binding result in assay [2] and in assay [4] were “no binding” and “no binding (tested: 200 nM)”, respectively. Also, the Kd in assay [5] was 116 nM; in assay [6], 52 nM.

B2: Tie2.24 (antibody, IgG1, V domains shown)
VH: EVQLVESGGGLVQPGGSLRLSCAASGFTFTSSGISWVRQAPGKGLEWVATINPYGGDTYYADSVKGRFTISADTSKNTAYLQMNSLRAEDTAVYYCARFYRFLSSGMDYWGQGTLVTVSS
VL: DIQMTQSPSSLSASVGDRVTITCRASQDVSTAVAWYQQKPGKAPKLLIYSASFLYSGVPSRFSGSGSGTDFTLTISSLQPEDFATYYCQQSYTTPPTFGQGTKVEIKR
notes: hIgG1 in later assays; also called Ab24
As to B2, the binding result in assay [2] is recorded as “no binding”; in assay [7], “binds”. The Kd in assay [5] amounted to 2800 nM; in assay [6], 822 nM.

(Values after patent publication US20210332142A1 (Genentech, published 2021).)
